PMC12013497

Biological target: wild-type Bacteroides fragilis glutamate decarboxylase (BfGADWT) (Bacteroides fragilis)
Experiment: SEC

**Q.** For “wild-type Bacteroides fragilis glutamate decarboxylase (BfGADWT) (enzyme)”, which stoichiometry N is on record?
**A.** 6
